Assay results as given in patent US20230203146A1 (Boehringer Ingelheim, published 2023).

T1: N-terminally FLAG-tagged cynomolgus Ang2 (HEK293T conditioned medium) (cynomolgus, UniProt O15123 19-496 (human entry), limits assumed)
T1 construct: may be a nucleotide entry; also called cAng2; FLAG-cAng2
T1 chain: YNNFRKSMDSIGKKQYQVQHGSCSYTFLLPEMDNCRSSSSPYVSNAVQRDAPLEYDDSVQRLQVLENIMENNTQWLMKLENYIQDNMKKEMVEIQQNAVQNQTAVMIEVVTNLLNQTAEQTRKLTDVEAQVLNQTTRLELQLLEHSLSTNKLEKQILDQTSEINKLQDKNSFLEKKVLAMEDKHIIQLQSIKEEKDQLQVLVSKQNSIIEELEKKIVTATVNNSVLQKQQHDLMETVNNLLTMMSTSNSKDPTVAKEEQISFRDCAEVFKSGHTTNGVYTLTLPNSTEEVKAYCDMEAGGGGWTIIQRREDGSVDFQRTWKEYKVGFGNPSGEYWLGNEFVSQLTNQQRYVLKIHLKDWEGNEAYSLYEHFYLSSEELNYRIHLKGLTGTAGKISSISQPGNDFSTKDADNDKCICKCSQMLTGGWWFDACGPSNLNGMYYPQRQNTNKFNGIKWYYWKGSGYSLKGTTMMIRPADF

T2: N-terminally FLAG-tagged mouse Ang2 (HEK293T conditioned medium) (mouse, UniProt O35608 19-496)
T2 construct: may be a nucleotide entry; also called mAng2; FLAG-mAng2
T2 sequence: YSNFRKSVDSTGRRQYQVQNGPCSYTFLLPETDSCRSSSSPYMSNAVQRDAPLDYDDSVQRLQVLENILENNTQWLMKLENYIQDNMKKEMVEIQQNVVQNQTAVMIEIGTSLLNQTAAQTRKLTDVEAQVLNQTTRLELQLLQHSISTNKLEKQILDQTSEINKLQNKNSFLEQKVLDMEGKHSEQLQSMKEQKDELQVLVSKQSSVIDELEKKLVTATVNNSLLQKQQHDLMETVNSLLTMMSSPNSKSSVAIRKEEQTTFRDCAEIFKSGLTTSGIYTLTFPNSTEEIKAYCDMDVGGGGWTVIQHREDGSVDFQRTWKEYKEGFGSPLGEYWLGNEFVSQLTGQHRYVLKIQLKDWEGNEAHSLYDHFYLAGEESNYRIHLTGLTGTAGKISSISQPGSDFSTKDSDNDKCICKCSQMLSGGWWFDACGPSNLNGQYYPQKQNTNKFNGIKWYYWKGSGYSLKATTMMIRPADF

T3: FLAG-tagged recombinant human Ang1 (Alexis Biochemicals) (human, UniProt Q15389 20-498, limits assumed)
T3 construct: Bought reagent; also called hAng1; FLAG-hAng1
T3 sequence (looked up): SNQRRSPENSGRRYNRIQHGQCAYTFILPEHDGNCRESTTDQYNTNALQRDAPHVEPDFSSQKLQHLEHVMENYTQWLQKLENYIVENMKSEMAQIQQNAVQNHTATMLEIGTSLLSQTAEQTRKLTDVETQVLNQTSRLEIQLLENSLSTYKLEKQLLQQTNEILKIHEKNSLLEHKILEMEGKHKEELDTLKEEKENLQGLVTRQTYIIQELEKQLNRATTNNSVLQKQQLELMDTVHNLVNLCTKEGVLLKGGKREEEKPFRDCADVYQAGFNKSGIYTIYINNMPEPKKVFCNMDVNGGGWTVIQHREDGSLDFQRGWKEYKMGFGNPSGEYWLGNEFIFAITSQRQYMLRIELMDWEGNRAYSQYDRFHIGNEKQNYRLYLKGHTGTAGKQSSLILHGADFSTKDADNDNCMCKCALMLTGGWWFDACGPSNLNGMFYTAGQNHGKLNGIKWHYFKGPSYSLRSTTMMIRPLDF

T4: recombinant cynomolgus Ang2-FLD (cynomolgus, UniProt A0A2K5VNX6 275-496)
T4 construct: domain: FLD; also called cyno Ang2-FLD
T4 sequence: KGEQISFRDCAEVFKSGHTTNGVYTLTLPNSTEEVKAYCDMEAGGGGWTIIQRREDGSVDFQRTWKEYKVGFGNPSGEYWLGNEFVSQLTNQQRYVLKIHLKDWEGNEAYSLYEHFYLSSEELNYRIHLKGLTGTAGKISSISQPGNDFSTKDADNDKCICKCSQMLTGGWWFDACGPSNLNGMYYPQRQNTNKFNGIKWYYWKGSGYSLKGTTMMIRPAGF

T5: recombinant human Ang2-FLD (human, UniProt O15123 275-496, limits assumed)
T5 construct: domain: FLD
T5 sequence (looked up): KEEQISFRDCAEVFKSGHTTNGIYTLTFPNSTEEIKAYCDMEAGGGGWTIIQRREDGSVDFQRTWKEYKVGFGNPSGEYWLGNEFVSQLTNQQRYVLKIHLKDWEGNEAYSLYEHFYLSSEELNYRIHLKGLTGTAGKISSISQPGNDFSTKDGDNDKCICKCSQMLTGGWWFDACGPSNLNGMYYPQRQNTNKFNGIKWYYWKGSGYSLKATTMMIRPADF

T6: recombinant mouse Ang2-FLD (mouse, UniProt O35608 275-496, limits assumed)
T6 construct: domain: FLD
T6 sequence (looked up): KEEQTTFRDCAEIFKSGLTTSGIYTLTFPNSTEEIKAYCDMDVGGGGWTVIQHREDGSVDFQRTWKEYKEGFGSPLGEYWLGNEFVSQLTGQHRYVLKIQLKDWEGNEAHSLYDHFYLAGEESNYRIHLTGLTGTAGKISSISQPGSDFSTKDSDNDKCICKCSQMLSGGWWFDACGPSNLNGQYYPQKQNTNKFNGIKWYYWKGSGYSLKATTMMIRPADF

T7: recombinant rat Ang2-FLD (rat, UniProt O35462 275-496, limits assumed)
T7 construct: domain: FLD
T7 sequence (looked up): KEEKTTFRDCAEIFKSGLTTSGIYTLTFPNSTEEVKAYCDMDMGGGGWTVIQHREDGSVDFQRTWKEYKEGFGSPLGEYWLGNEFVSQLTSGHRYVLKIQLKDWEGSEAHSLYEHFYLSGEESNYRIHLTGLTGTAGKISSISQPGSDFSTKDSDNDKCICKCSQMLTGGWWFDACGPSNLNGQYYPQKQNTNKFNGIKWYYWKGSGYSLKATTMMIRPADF

T8: FLAG-tagged mouse Ang2 (mouse, UniProt O35608 19-496)
T8 construct: N-terminally FLAG-tagged, conditioned medium of HEK293T cells; also called mAng2; FLAG-mAng2
T8 sequence: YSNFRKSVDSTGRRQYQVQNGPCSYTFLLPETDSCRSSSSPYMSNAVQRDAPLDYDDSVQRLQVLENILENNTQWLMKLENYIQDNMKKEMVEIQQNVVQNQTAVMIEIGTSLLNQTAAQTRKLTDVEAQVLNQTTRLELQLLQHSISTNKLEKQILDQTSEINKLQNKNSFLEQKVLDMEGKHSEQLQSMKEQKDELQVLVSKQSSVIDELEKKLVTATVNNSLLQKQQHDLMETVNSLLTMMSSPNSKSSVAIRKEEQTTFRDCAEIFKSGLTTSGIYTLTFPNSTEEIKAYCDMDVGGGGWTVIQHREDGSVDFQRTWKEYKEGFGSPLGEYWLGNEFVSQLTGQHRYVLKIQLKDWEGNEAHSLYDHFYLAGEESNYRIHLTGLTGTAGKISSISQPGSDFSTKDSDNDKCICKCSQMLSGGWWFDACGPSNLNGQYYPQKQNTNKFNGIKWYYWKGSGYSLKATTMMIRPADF

T9: FLAG-tagged cynomolgus Ang2 (cynomolgus, UniProt O15123 19-496 (human entry), limits assumed)
T9 construct: N-terminally FLAG-tagged, conditioned medium of HEK293T cells; also called cAng2; FLAG-cAng2
T9 chain: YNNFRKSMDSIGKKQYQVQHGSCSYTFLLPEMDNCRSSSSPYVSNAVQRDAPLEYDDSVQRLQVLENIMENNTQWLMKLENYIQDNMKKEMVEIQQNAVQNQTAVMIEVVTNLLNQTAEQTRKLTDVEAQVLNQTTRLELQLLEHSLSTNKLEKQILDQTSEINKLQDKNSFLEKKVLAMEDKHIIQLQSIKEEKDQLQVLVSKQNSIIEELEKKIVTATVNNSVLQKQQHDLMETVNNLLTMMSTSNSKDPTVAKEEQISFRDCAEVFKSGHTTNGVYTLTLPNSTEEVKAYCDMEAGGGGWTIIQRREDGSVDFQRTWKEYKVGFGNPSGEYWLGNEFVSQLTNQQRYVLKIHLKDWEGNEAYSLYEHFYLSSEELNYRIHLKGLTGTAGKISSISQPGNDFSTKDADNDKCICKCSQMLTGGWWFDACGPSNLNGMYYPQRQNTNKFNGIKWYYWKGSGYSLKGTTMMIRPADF


Tests used:
[1] = target: T1, N-terminally FLAG-tagged cynomolgus …; experiment: competition ELISA, FLAG-cAng2 on coated cTie2-Fc
Method: (§1) In brief, 2 μg/mL of recombinant mouse Tie2-Fc or cyno Tie2-Fc is coated overnight at 4° C. in a 96-well MaxiSorp plate (Nunc, Wiesbaden, Germany). Coated wells are blocked with a 1% casein solution.

[2] = target: T2, N-terminally FLAG-tagged mouse Ang2 …; experiment: competition ELISA, FLAG-mAng2 on coated mTie2-Fc
Method: as §1

[3] = target: T3, FLAG-tagged recombinant human Ang1 …; experiment: ratio of IC50 in hAng1/hTie2 ELISA to IC50 in hAng2/hTie2 ELISA
Method: In brief, 2 μg/mL of Tie2/Fc chimera (R&D Systems, Minneapolis, Minn., USA) is coated in a 96-well MaxiSorp plate (Nunc, Wiesbaden, Germany).
In brief, 2 μg/mL of recombinant human Tie2-Fc (R&D Systems, Minneapolis, Minn., USA) is coated overnight at 4° C. in a 96-well MaxiSorp plate (Nunc, Wiesbaden, Germany). Coated wells are blocked with a 1% casein solution.

[4] = target: T4, recombinant cynomolgus Ang2-FLD; experiment: SPR (Biacore T100), VHH immobilized, Ang2-FLD injected
[5] = target: T5, recombinant human Ang2-FLD; experiment: as above
[6] = target: T6, recombinant mouse Ang2-FLD; experiment: as above
recombinant rat Ang2-FLD = target: T7, recombinant rat Ang2-FLD; experiment: as above
FLAG-tagged mouse Ang2 = target: T8, FLAG-tagged mouse Ang2; experiment: competition ELISA: FLAG-mAng2 binding to coated mTie2-Fc
Method: as §1

[7] = target: T9, FLAG-tagged cynomolgus Ang2; experiment: competition ELISA: FLAG-cAng2 binding to coated cTie2-Fc
Method: as §1

IC50 [1] | IC50 [2] | hAng1/hAng2 ratio [3] | Kd [4] | koff [4] | kon [4] | Kd [5] | koff [5] | kon [5] | Kd [6] | koff [6] | kon [6] | Kd (recombinant rat Ang2-FLD) | koff (recombinant rat Ang2-FLD) | kon (recombinant rat Ang2-FLD) | IC50 (FLAG-tagged mouse Ang2) | IC50 [7] | Binder
0.1 nM | 0.09 nM | > 100000 |  |  |  |  |  |  |  |  |  |  |  |  |  |  | VHH 37F02 (VHH, also called 037F02; not shown: C-terminal c-myc tag and His6 tag) VHH: EVQLVESGGGLVQPGGSLRLSCAASGFALDYYAIGWFRQAPGKEREGVSCISSSDGITYYVDSVKGRFTISRDNAKNTVYLQMNSLKPEDTAVYYCATDSGGYIDYDCMGLGYDYWGQGTQVTVSS
 |  |  | 0.72 nM | 0.0013 s⁻¹ | 1.7e+06 M⁻¹ s⁻¹ | 1.2 nM | 0.0015 s⁻¹ | 1.3e+06 M⁻¹ s⁻¹ | 4 nM | 0.0039 s⁻¹ | 980000 M⁻¹ s⁻¹ | 13 nM | 0.0052 s⁻¹ | 420000 M⁻¹ s⁻¹ | 2.2 nM | 0.83 nM | VHH 00956 (VHH, not shown: small tags and cut ends) VHH: EVQLVESGGGLVQPGGSLRLSCAASGFTLDDYAIGWFRQAPGKEREGVSAIRSSGGSTYYADSVKGRFTISSDNSKNTVYLQMNSLRPEDTAVYYCAAVPAGRLRFGEQWYPLYEYDAWGQGTLVTVSS
 |  |  | 0.0087 nM | 2.2e-05 s⁻¹ | 2.6e+06 M⁻¹ s⁻¹ | 0.017 nM | 2.8e-05 s⁻¹ | 1.6e+06 M⁻¹ s⁻¹ | 0.05 nM | 5.6e-05 s⁻¹ | 1.1e+06 M⁻¹ s⁻¹ | 0.14 nM | 7.2e-05 s⁻¹ | 510000 M⁻¹ s⁻¹ | 0.055 nM | 0.091 nM | VHH 00938 (VHH, not shown: small tags and cut ends, Cycle 3 variant of 28D10 on the 00908 backbone) VHH: EVQLVESGGGLVQPGGSLRLSCAVSGITLDDYAIGWFRQAPGKEREGVSAIRSSGGSTYYADSVKGRFTISSDNSKNTVYLQMNSLRPEDTAVYYCAAVPAGRLRYGEQWYPIYEYDAWGQGTLVTVSS
